Columns and labels:
[1] = Measurement of fluorescence spectrum, absorption spectrum, quantum yield and fluorescence lifetime; type: physicochemical
Procedure: In order to analyze the fluorescent properties of UnaG protein, the fluorescence spectrum, absorption spectrum, and quantum yield were measured. The excitation spectrum and the fluorescence spectrum were measured with a spectrophotofluorometer, RF-5300PC (Shimadzu Corporation), at an excitation wavelength of 475 nm and a fluorescence wavelength of 550 nm. The absorption spectrum was measured with a spectrophotometer, U-2900 (Hitachi High-Technologies Corporation). The quantum yield was measured with an absolute quantum yield measurement system, Quantaurus-QY (Hamamatsu Photonics K.K.) at excitation wavelengths of 470 nm and 480 nm. A known fluorescent protein, EGFP, was similarly measured, and the values were compared to those of UnaG protein.
In order to analyze the fluorescent properties of R82EK84E mutant, the fluorescence spectrum, absorption spectrum, and quantum yield were measured. The measurement was performed by the same method as that described in the above-described paragraph 3. The fluorescence lifetime was measured with a small-sized fluorescence lifetime measurement system, Quantaurus-Tau (Hamamatsu Photonics K.K.) and was compared to that of wild-type UnaG protein.
The fluorescence spectrum, absorption spectrum, and quantum yield (excitation wavelength: 470 nm) were measured for analyzing the fluorescent properties of holo A12ES80N mutant protein. The measurement was performed by the same method as that described in paragraph 3, above. The fluorescent properties were compared to those of wild-type UnaG protein.

mammalian cell HEK293T = assay: Expression of recombinant UnaG protein in mammalian cells, fluorescence microscopy; type: cell-based; settings: fluorescence microscope
Description: DNA to be inserted to an expression vector for mammalian cell was amplified by PCR using full-length cDNA of the UnaG gene of SEQ ID NO: 2 as template DNA, a sense primer (SEQ ID NO: 24), and an antisense primer (SEQ ID NO: 25). A FLAG-tag sequence (SEQ ID NO: 26) was inserted into the KpnI restriction enzyme site and the BamHI restriction enzyme site of expression vector pcDNA3 (Invitrogen) for mammalian cell, and the amplified DNA fragment was ligated to the BamHI restriction enzyme site and the EcoRI restriction enzyme site of the resulting pcDNA3-FLAG vector and transformed into Escherichia coli strain DH5α for cloning. The vector was extracted from Escherichia coli and was purified. The sequence was confirmed by DNA sequence analysis. Thus, a UnaG expression vector (pcDNA3-FLAG-UnaG) for mammalian cells was constructed. […]
After the expression of protein, the medium was removed from each dish, and the cells were rinsed with PBS. […] The purified FLAG-UnaG protein (holo form) was irradiated with a UV transilluminator for verifying whether fluorescence was present or not. […]
FIG. 1 includes diagrams showing expression of recombinant UnaG protein in Escherichia coli and mammalian cells. […] The diagram (c) includes a differential interference image and a fluorescence image by observation of mammalian cell HEK293T expressing recombinant UnaG protein under a fluorescence microscope. […]

[2] = Table 3, wild-type vs R82EK84E mutant
[3] = Table 3, wild-type vs R82EK84E mutant, holo form reconstructed with bilirubin
[4] = Table 4, wild-type vs holo A12ES80N mutant

B1: UnaG: fluorescent polypeptide including the amino acid sequence of SEQ ID NO: 1, originally isolated from Japanese eel; fluoresces in the presence of bilirubin (protein, listed as Anguilla japonica)
chain: MVEKFVGTWKIADSHNFGEYLKAIGAPKELSDGGDATTPTLYISQKDGDKMTVKIENGPPTFLDTQVKFKLGEEFDEFPSDRRKGVKSVVNLVGEKLVYVQKWDGKETTYVREIKDGKLVVTLTMGDVVAVRSYRRATE
B1 gave a Maximum excitation wavelength ([1]; Table 2, UnaG compared to EGFP) of 498 nm, a Maximum fluorescence wavelength ([1]; Table 2, UnaG compared to EGFP) of 527 nm and a Brightness ([1]; Table 2, [(Molar extinction coefficient) × (Quantum yield)]/1,000) of 39.4. For the same molecule, the Molar extinction coefficient ([1]; Table 2, at the maximum excitation wavelength (498 nm UnaG, 490 nm EGFP)) was 77,300 (498 nm) M^−1 cm^−1, the Quantum yield ([1]; Table 2, excitation wavelengths 470 nm and 480 nm) was 51% and the Molar extinction coefficient [1, 2] was 56,992 M^−1 cm^−1. For the same molecule, the Quantum yield [1, 2] was 51%, the Maximum excitation wavelength [1, 3] was 498 nm and the Maximum fluorescence wavelength [1, 3] was 527 nm. The “Fluorescence lifetime (τ1/ns)” value ([1]; Table 3, wild-type vs R82EK84E mutant, Quantaurus-Tau) was 2.2 ns, the Maximum excitation wavelength [1, 4] was 499 nm and the Maximum fluorescence wavelength [1, 4] was 527 nm. For the same molecule, the Molar extinction coefficient [1, 4] was 52,687 M^−1 cm^−1, the Quantum yield ([1]; Table 4, excitation wavelength 470 nm) was 53.2% and the Fluorescence lifetime ([1]; main fluorescent properties of UnaG) was 2.2 nanosecond. For the same molecule, the “fluorescence of expressed protein in cells” value (mammalian cell HEK293T) was “emitted fluorescence”.

— patent US9957308B2, “Method for detecting bilirubin using a fluorescent protein” (RIKEN, priority 2013, dated 2018)
